Test results from PMC5016554.

Target: growth hormone secretagogue receptor (GHSR) (mouse (endogenous in pancreatic delta cells)) (UniProt Q99P50)
Chain of UniProt Q99P50 (Q99P50 whole entry, stated change not applied): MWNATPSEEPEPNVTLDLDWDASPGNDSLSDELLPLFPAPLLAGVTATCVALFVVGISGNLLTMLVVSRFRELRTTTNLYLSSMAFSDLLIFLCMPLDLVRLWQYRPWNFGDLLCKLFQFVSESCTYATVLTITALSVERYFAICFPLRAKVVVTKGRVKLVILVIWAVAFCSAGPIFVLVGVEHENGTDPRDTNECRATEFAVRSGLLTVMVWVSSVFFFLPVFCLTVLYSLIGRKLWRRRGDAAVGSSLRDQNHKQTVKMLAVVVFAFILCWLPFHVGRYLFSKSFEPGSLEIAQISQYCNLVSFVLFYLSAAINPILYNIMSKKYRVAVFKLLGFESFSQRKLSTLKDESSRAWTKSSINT

Mouse ghrelin (peptide)
SST release from perfused mouse pancreas at 12 mmol/l glucose, 1 and 100 nmol/l ghrelin, fold increase: 2.7 fold
